Consider eight molecules from US20200079847A1 (H LUNDBECK A S, published 2020).

Read-outs that look alike come from different tables or passages of the source.

The target in assay [1] is T1, Pituitary Adenylate Cyclase-Activating Polypeptide 38 (PACAP38) (Homo sapiens, C-terminal lysine is amidated).
T1 peptide: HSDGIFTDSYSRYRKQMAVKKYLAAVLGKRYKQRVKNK
Nature of the assay: cell-based or functional assay.

Assay [2] concerns the target T1, Pituitary Adenylate Cyclase-Activating …. Kind of assay: cell-based or functional assay.
Assay [3] concerns the target T2, Pituitary Adenylate Cyclase-Activating Polypeptide 27 (PACAP27) (Homo sapiens, C-terminal leucine is amidated).
T2 peptide: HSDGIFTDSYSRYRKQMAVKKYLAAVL
Nature of the assay: cell-based or functional assay.

Assay [4] addresses T1, Pituitary Adenylate Cyclase-Activating …. Nature of the assay: cell-based or functional assay.
For assay [5] the target is unchanged. Nature of the assay: DELFIA TRF cell-surface binding: antibody pre-incubated with PACAP38, complex added to PAC1-R-expressing PC-12 cells, Eu anti-human IgG detection; PACAP38 held on the cell surface is the target.
For assay [6] the target is unchanged. Kind of assay: SPR, antibody immobilized. The procedure:
(§1) Binding affinities of monoclonal antibodies for human PACAP were estimated using SPR on the PROTEON™ XPR36 (Bio-Rad, Hercules, Calif.). Antibody was immobilized to the surface of general amine coupling (“GLC” or “GLM”) Chips (Bio-Rad, Hercules, Calif.). […] Antigen (ranging from 1.23 nM to 100 nM) was typically run sequentially with association times of 2-4 minutes and dissociation times of 3-120 minutes grouped with the PROTEON™ Manager Software (v3.1.0.6 (Bio-Rad, Hercules, Calif.)) and fitted using a 1:1 Langmuir binding model.
On the technique in general: SPR reads the build-up and loss of mass on a sensor chip optically.

The target of assay [7] is T3, Vasoactive Intestinal Peptide (VIP) (human).
T3 construct: also called human VIP
T3 peptide: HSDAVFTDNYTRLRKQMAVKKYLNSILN
Nature of the assay: competitive HTRF: unlabelled VIP (10x) against biotinylated PACAP38 (35 nM) for the titrated antibody. The protocol: In parallel, 10 μl of an antibody dilution series (highest final concentration of 100 nM) were incubated with 10 μl of N-terminal or C-terminal biotinylated PACAP38 (35 nM final) alone, or in combination with either PACAP27 (350 nM final) or VIP (350 nM final), i.e., 10× PACAP27 or 10×VIP, respectively, in a HTRF plate. 20 μl of Eu³⁺ cryptate labeled anti-hu Fc donor and 20 μl of d2-labeled streptavidin acceptor were added to each well and incubated for 1 hour at room temperature. Fluorescence was measured at 620 and 665 nm with a delay of […].
In general terms: In TR-FRET formats the signal depends on donor and acceptor labels being close together.

The target of assay [8] is T2, Pituitary Adenylate Cyclase-Activating …. Kind of assay: SPR, antibody immobilized. The procedure:
as §1

The target in assay [9] is T1, Pituitary Adenylate Cyclase-Activating …. Nature of the assay: DELFIA TRF cell-surface binding: antibody pre-incubated with PACAP38, complex added to PAC1-R-expressing PC-12 cells, Eu anti-human IgG detection; PACAP38 held on the cell surface is the target.
Assay [10] shares this target. The description is as above.
Assay [11] shares this target. Described as above.

B1: Ab10.H (antibody, V domains shown)
VH: EVQLVESGGGLVQPGGSLRLSCAASGIDLNSYYMTWVRQAPGKGLEWIGFIDAGGDAYYASWAKGRFTISRDNSKNTVYLQMNSLRAEDTAVYFCARDLDLWGQGTLVTVSS
VL: DAQLTQSPSTLSASVGDRVTITCQSSESVYGNYLAWFQQKPGKAPKFLIYEASKLESGVPSRFSGSGSGTEFTLTISSLQPDDFATYYCAGGDISEGVAFGGGTKVEIKR
Turning to B1, the “IC50, 1 nM PACAP38-induced human VPAC2-R mediated cAMP increase” value in assay [1] came to 0.988 nM. In addition, the “IC50, 5 nM PACAP38-induced human VPAC1-R mediated cAMP increase” value in assay [2] was found to be 1.34 nM. In addition, the “IC50, 0.1 nM PACAP27-induced PAC1-R mediated cAMP increase” value in [3] was found to be 0.084 nM. Further, the “IC50, 0.1 nM PACAP38-induced PAC1-R mediated cAMP increase” value in assay [4] was determined as 0.163 nM.

B2: Ab12.H (antibody, V domains shown)
VH: EVQLVESGGGLVQPGGSLRLSCAASGFSLSSYAMGWVRQAPGKGLEWIGDISTYGTTDYASWVYGRFTISRDNSKNTVYLQMNSLRAEDTAVYFCARDYWLSLWGQGTLVTVSS
VL: AAQLTQSPSTLSASVGDRVTITCQSSQSVYDNNALAWYQQKPGKAPKLLIYAASTLASGVPSRFSGSGSGTEFTLTISSLQPDDFATYYCLGGYYDPADNAFGGGTKVEIKR
The term EC50 (read off the curve) denotes the concentration giving half of the maximal effect. Low readings indicate higher potency in that assay, high ones lower potency in that assay. As a reminder, the Kd is the constant that tells how readily two partners part at equilibrium. Low values mean tighter binding, high ones weaker binding. The koff is the rate constant with which the complex falls apart. A low value points to a long-lived complex. On to B2, for which the “EC50 (read off the curve)” value in assay [5] was about 3 nM. In assay [6], this molecule had a Kd of 0.026 nM and a koff of 1e-05 s⁻¹.

B3: Ab9 (antibody, human IgG1, kappa, N297A, V domains shown)
VH: EQSGGGAEGGLVKPGGSLKLSCKASGFTISRDYWICWVRQAPGKGLEWIGCISAGGGSTDYANWVNGRFTLSRDIDQSTGCLQLNSLTDADTAMYYCAGNLEIWGQGTLVTVSS
VL: AQVLTQTPSSVSAAVGGTVTINCQSSPSIYSGAFLSWFQQKPGQPPKFLIYEASKLASGVPSRFSGSGSGTQFTLTISDVQCDDAATYYCLGFYDCSSVDCHAFGGGTEVVVKR
notes: full-length antibody, rabbit variable regions on human constant regions
As for B3, the binding result in [7] is on record as “no binding”.

B4: Ab3 (antibody, human IgG1, kappa, N297A, V domains shown)
VH: QEQLVESGGGLVQPEGSLTLTCTASGFSFSSSDYMCWVRQAPGKGLEWIGCIDAGSSGDTYFASWAKGRFTISKTSSTTVTLQMTSLTAADTATYFCARHLYGSITFAFGLWGQGTLVTVSS
VL: AAVLTQTPSPVSAAVGGTVTINCQASQSIGSDLAWYQQKPGQPPKLLIYDASTLASGVPSRFSGSGSGTQFTLTISGVQCDDAATYYCQGTYYSSGWYTAFGGGTEVVVKR
notes: as for B3
B4: the binding result in assay [7] is listed as “no binding”.

B5: Ab1 (antibody, human IgG1, kappa, N297A, V domains shown)
VH: QSVEESGGRLVTPGTPLTLTCTVSGFSLSSAVMNWVRQAPGKGLEWIGSIVASGTTYYASWANGRFTISKTSSTTMDLKMTSPTTEDTATYFCARGGGEFFIWGPGTLVTVSS
VL: DPVMTQTPSSTSAAVGGTVTISCQSSESVYSNYLSWYQQKPGQPPNFLIYQASNLASGVPSRFKGSGSGTQFTLTITDLECDDAATYYCAGGYSENIVGFGGGTEVVVKR
notes: as for B3
With B5, the dissociation constant (Kd) in assay [8] was at most 0.01 nM.

B6: Ab5.H (antibody, V domains shown)
VH: EVQLVESGGGLVQPGGSLRLSCAASGFSLSSYAMIWVRQAPGKGLEWVGIIYDNGDTYYASSAKGRFTISRDNSKNTVYLQMNSLRAEDTAVYFCAREPGSTTQNDLWGQGTLVTVSS
VL: DVQMTQSPSTLSASVGDRVTITCQASENIYNSLLWYQQKPGKAPKLLIYRASTLASGVPSRFSGSGSGTEFTLTISSLQPDDFATYYCQNYYNIWTNGAAFGGGTKVEIKR
Consider B6, for which the “EC50 (read off the curve)” value in assay [9] was about 3 nM.

B7: Ab3.H (antibody, V domains shown)
VH: EVQLVESGGGLVQPGGSLRLSCAASGFSFSSSDYMCWVRQAPGKGLEWIGCIDAGSSGDTYFASSAKGRFTISRDNSKNTVYLQMNSLRAEDTAVYFCARHLYGSITFAFGLWGQGTLVTVSS
VL: AAQMTQSPSTLSASVGDRVTITCQASQSIGSDLAWYQQKPGKAPKLLIYDASTLASGVPSRFSGSGSGTEFTLTISSLQPDDFATYYCQGTYYSSGWYTAFGGGTKVEIKR
Turning to B7, the “EC50 (read off the curve)” value in assay [10] was about 3 nM.

B8: Ab4.H (antibody, V domains shown)
VH: EVQLVESGGGLVQPGGSLRLSCAASGFSLSSYDMSWVRQAPGKGLEWIGIINTNDDTWYASWVKGRFTISRDNSKNTLYLQMNSLRAEDTAVYYCARISDAYVFDYAYYFTLWGQGTLVTVSS
VL: DIQMTQSPSTLSASVGDRVTITCLASQNIYNSLAWYQQKPGKAPKLLIYRASTLASGVPSRFSGSGSGTEFTLTISSLQPDDFATYYCQQGAGADNIGNPFGGGTKVEIKR
For the molecule B8, the “EC50 (read off the curve)” value in [11] is about 4 nM. In [8], the Kd stood at 0.031 nM and the koff turned out to be 1e-05 s⁻¹.
